Data from US20220323445A1, “REDUCING IMMUNOGENICITY TO PEGLOTICASE” (Horizon Therapeutics Ireland DAC, priority 2020, published 2022).

Tested on: patients with uncontrolled gout
Assay: Health Assessment Questionnaire (HAQ-DI, HAQ pain, HAQ health), open-label study
Assay type: in vivo, human
Parameters: key to HAQ-Health, Observed, Median / HAQ-Health, Change from Baseline, Median: 0-100 scale; 0 = very well, 100 = very poor health; key to HAQ-DI, Observed, Median / HAQ-DI, Change from Baseline, Median: HAQ-DI scale 0-3; 0 = no difficulty, 3 = unable to do
Settings: mITT
Procedure: Quality-of-Life Assessment: The HAQ was administered at the Screening and Week −4 or week −6 (prior to the first dose of MTX) Visits during the MTX Run-in Period for the open-label and randomized studies, respectively; prior to pegloticase infusion at the Day 1 and Weeks 14, 24 and 36 Visits or at the Day 1 and weeks 6, 14, 20, 24, 30, 36, and 44 visits during the Pegloticase+IMM Period for the open-label and randomized studies, respectively; at the End of Pegloticase Infusions Visit (if applicable), the Week 52/End of Study/Early Termination Visit and the Post Treatment Periods 3 and 6 Month Follow-up Visits (open-label study). The HAQ-DI is a self-report functional status instrument that can be filled out by a subject in less than 5 minutes and requires 1 minute to score. The index measures disability over the past week by asking a total of 20 questions covering 8 domains of function: dressing and grooming, arising, eating, walking, hygiene, reach, grip, and usual activities. There are at least 2 questions in each domain and the 8 domains represent a comprehensive set of functional activities. The HAQ-DI is calculated by scoring the answer to each question in the HAQ from 0 to 3, with 0 representing the ability to do without any difficulty, and 3 representing inability to do. Any activity that requires assistance from another individual or requires the use of an assistive device raises a 0 or 1 score to a 2. The highest score for each of the 8 domains is summed (range from 0 to 24) and divided by 8 to yield, on a scale with 25 possible values, a Functional Disability Index with a range from 0 to 3. The disability index is based on the number of domains answered and is computed only if the subject completes answers to at least 6 domains. The HAQ pain scale asks subjects to record how much pain they have had in the past week on a scale of 0 to 100, where zero represents “no pain” and 100 represents “severe pain”. The HAQ health scale is a measure of overall health. Subjects are asked to rate how well they are doing on a score of 0 to 100, where zero represents “very well” and 100 represents “very poor” health.

[1] = Day 1 vs Methotrexate Baseline, n=13
[2] = Early Termination Visit vs Methotrexate Baseline, n=3
[3] = Early Termination Visit vs Pegloticase Baseline, n=3
[4] = End of Pegloticase Infusions Visit vs Methotrexate Baseline, n=2
[5] = End of Pegloticase Infusions Visit vs Pegloticase Baseline, n=2
[6] = End of Pegloticase Infusions Visit, n=2
[7] = Week 14 vs Methotrexate Baseline, n=14
[8] = Week 14 vs Pegloticase Baseline, n=14
[9] = Week 24 vs Methotrexate Baseline, n=11
[10] = Week 24 vs Pegloticase Baseline, n=11
[11] = Week 36 vs Methotrexate Baseline, n=9
[12] = Week 36 vs Pegloticase Baseline, n=9
[13] = Week 52/ET vs Methotrexate Baseline, n=3
[14] = Week 52/ET vs Pegloticase Baseline, n=3

B1: pegloticase (protein)
chain: TYKKNDEVEFVRTGYGKDMIKVLHIQRDGKYHSIKEVATTVQLTLSSKKDYLHGDNSDVIPTDTIKNTVNVLAKFKGIKSIETFAVTICEHFLSSFKHVIRAQVYVEEVPWKRFEKNGVKHVHAFIYTPTGTHFCEVEQIRNGPPVIHSGIKDLKVLKTTQSGFEGFIKDQFTTLPEVKDRCFATQVYCKWRYHQGRDVDFEATWDTVRSIVLQKFAGPYDKGEYSPSVQKTLYDIQVLTLGQVPEIEDMEISLPNIHYLNIDMSKMGLINKEEVLLPLDNPYGKITGTVKRKLSSRL
modifications: monomethoxy PEG conjugated; Krystexxa Sequence
notes: covalent conjugate of uricase produced by a genetically modified strain of Escherichia coli and monomethoxypoly (ethylene glycol)
B1 was tested, and the “HAQ-DI, Observed, Mean (SD)” value (Day 1, n=13) was 0.8 (0.77), the “HAQ-DI, Observed, Median” value (Day 1, n=13) was 0.5 and the “HAQ-Health, Observed, Mean (SD)” value (Day 1, n=13) was 37.8 (27.06). For the same molecule, the “HAQ-Health, Observed, Median” value (Day 1, n=13) was 25.0, the “HAQ-Pain, Observed, Mean (SD)” value (Day 1, n=13) was 42.5 (22.24) and the “HAQ-Pain, Observed, Median” value (Day 1, n=13) was 40.0. The “HAQ-DI, Change from Baseline, Mean (SD)” value [1] was 0.1 (0.27), the “HAQ-DI, Change from Baseline, Median” value [1] was 0.0 and the “HAQ-Health, Change from Baseline, Mean (SD)” value (shortened to “HAQ-Health, Change … (SD)”) [1] was −8.8 (38.29). For the same molecule, the “HAQ-Health, Change from Baseline, Median” value [1] was 10.0, the “HAQ-Pain, Change from Baseline, Mean (SD)” value (“HAQ-Pain, Change … (SD)” for short) [1] was 2.3 (19.93) and the “HAQ-Pain, Change from Baseline, Median” value [1] was 0.0. For the same molecule, the “HAQ-DI, Change from Baseline, Mean (SD)” value [2] was 0.2 (0.90), the “HAQ-DI, Change from Baseline, Median” value [2] was −0.3 and the “HAQ-Health, Change … (SD)” value [2] was −0.7 (16.77). For the same molecule, the “HAQ-Health, Change from Baseline, Median” value [2] was 8.0, the “HAQ-Pain, Change … (SD)” value [2] was 19.0 (36.51) and the “HAQ-Pain, Change from Baseline, Median” value [2] was 7.0. For the same molecule, the “HAQ-DI, Change from Baseline, Mean (SD)” value [3] was 0.2 (0.56), the “HAQ-DI, Change from Baseline, Median” value [3] was 0.1 and the “HAQ-Health, Change … (SD)” value [3] was −11.7 (62.52). For the same molecule, the “HAQ-Health, Change from Baseline, Median” value [3] was −10.0, the “HAQ-Pain, Change … (SD)” value [3] was 0.0 (45.83) and the “HAQ-Pain, Change from Baseline, Median” value [3] was −10.0. For the same molecule, the “HAQ-DI, Observed, Mean (SD)” value (Early Termination Visit, n=3) was 0.7 (0.51), the “HAQ-DI, Observed, Median” value (Early Termination Visit, n=3) was 0.6 and the “HAQ-Health, Observed, Mean (SD)” value (Early Termination Visit, n=3) was 28.3 (40.72). The “HAQ-Health, Observed, Median” value (Early Termination Visit, n=3) was 10.0, the “HAQ-Pain, Observed, Mean (SD)” value (Early Termination Visit, n=3) was 46.7 (40.41) and the “HAQ-Pain, Observed, Median” value (Early Termination Visit, n=3) was 40.0. For the same molecule, the “HAQ-DI, Change from Baseline, Mean (SD)” value [4] was −0.1 (0.35), the “HAQ-DI, Change from Baseline, Median” value [4] was −0.1 and the “HAQ-Health, Change … (SD)” value [4] was −80.0 (0.00). The “HAQ-Health, Change from Baseline, Median” value [4] was −80.0, the “HAQ-Pain, Change … (SD)” value [4] was 2.5 (74.25) and the “HAQ-Pain, Change from Baseline, Median” value [4] was 2.5. For the same molecule, the “HAQ-DI, Change from Baseline, Mean (SD)” value [5] was −0.1 (0.35), the “HAQ-DI, Change from Baseline, Median” value [5] was −0.1 and the “HAQ-Health, Change … (SD)” value [5] was −45.0 (49.50). For the same molecule, the “HAQ-Health, Change from Baseline, Median” value [5] was −45.0, the “HAQ-Pain, Change … (SD)” value [5] was 2.5 (74.25) and the “HAQ-Pain, Change from Baseline, Median” value [5] was 2.5. The “HAQ-DI, Observed, Mean (SD)” value [6] was 0.1 (0.18), the “HAQ-DI, Observed, Median” value [6] was 0.1 and the “HAQ-Health, Observed, Mean (SD)” value [6] was 0.0 (0.00). The “HAQ-Health, Observed, Median” value [6] was 0.0, the “HAQ-Pain, Observed, Mean (SD)” value [6] was 40.0 (56.57) and the “HAQ-Pain, Observed, Median” value [6] was 40.0. The “HAQ-DI, Observed, Mean (SD)” value (Week 14, n=14) was 0.5 (0.41), the “HAQ-DI, Observed, Median” value (Week 14, n=14) was 0.5 and the “HAQ-Health, Observed, Mean (SD)” value (Week 14, n=14) was 36.6 (33.87). For the same molecule, the “HAQ-Health, Observed, Median” value (Week 14, n=14) was 16.5, the “HAQ-Pain, Observed, Mean (SD)” value (Week 14, n=14) was 27.1 (26.25) and the “HAQ-Pain, Observed, Median” value (Week 14, n=14) was 15.0. The “HAQ-DI, Change from Baseline, Mean (SD)” value [7] was −0.2 (0.77), the “HAQ-DI, Change from Baseline, Median” value [7] was 0.0 and the “HAQ-Health, Change … (SD)” value [7] was −12.5 (36.79). For the same molecule, the “HAQ-Health, Change from Baseline, Median” value [7] was −5.0, the “HAQ-Pain, Change … (SD)” value [7] was −13.9 (30.48) and the “HAQ-Pain, Change from Baseline, Median” value [7] was −12.5. The “HAQ-DI, Change from Baseline, Mean (SD)” value [8] was −0.3 (0.80), the “HAQ-DI, Change from Baseline, Median” value [8] was 0.0 and the “HAQ-Health, Change … (SD)” value [8] was −4.3 (43.82). For the same molecule, the “HAQ-Health, Change from Baseline, Median” value [8] was −1.0, the “HAQ-Pain, Change … (SD)” value [8] was −16.0 (30.65) and the “HAQ-Pain, Change from Baseline, Median” value [8] was −12.5. The “HAQ-DI, Observed, Mean (SD)” value (Week 24, n=11) was 0.2 (0.33), the “HAQ-DI, Observed, Median” value (Week 24, n=11) was 0.1 and the “HAQ-Health, Observed, Mean (SD)” value (Week 24, n=11) was 21.4 (26.65). The “HAQ-Health, Observed, Median” value (Week 24, n=11) was 10.0, the “HAQ-Pain, Observed, Mean (SD)” value (Week 24, n=11) was 25.4 (27.50) and the “HAQ-Pain, Observed, Median” value (Week 24, n=11) was 20.0. For the same molecule, the “HAQ-DI, Change from Baseline, Mean (SD)” value [9] was −0.5 (0.74), the “HAQ-DI, Change from Baseline, Median” value [9] was −0.1 and the “HAQ-Health, Change … (SD)” value [9] was −33.2 (36.01). The “HAQ-Health, Change from Baseline, Median” value [9] was −40.0, the “HAQ-Pain, Change … (SD)” value [9] was −19.2 (35.13) and the “HAQ-Pain, Change from Baseline, Median” value [9] was −10.0. For the same molecule, the “HAQ-DI, Change from Baseline, Mean (SD)” value [10] was −0.6 (0.85), the “HAQ-DI, Change from Baseline, Median” value [10] was −0.1 and the “HAQ-Health, Change … (SD)” value [10] was −19.7 (43.38). For the same molecule, the “HAQ-Health, Change from Baseline, Median” value [10] was −10.0, the “HAQ-Pain, Change … (SD)” value [10] was −16.7 (38.53) and the “HAQ-Pain, Change from Baseline, Median” value [10] was −10.0. The “HAQ-DI, Observed, Mean (SD)” value (Week 36, n=9) was 0.3 (0.49), the “HAQ-DI, Observed, Median” value (Week 36, n=9) was 0.1 and the “HAQ-Health, Observed, Mean (SD)” value (Week 36, n=9) was 27.3 (35.18). The “HAQ-Health, Observed, Median” value (Week 36, n=9) was 10.0, the “HAQ-Pain, Observed, Mean (SD)” value (Week 36, n=9) was 21.0 (27.60) and the “HAQ-Pain, Observed, Median” value (Week 36, n=9) was 10.0. The “HAQ-DI, Change from Baseline, Mean (SD)” value [11] was −0.5 (0.80), the “HAQ-DI, Change from Baseline, Median” value [11] was 0.0 and the “HAQ-Health, Change … (SD)” value [11] was −27.7 (42.59). The “HAQ-Health, Change from Baseline, Median” value [11] was −10.0, the “HAQ-Pain, Change … (SD)” value [11] was −22.9 (28.41) and the “HAQ-Pain, Change from Baseline, Median” value [11] was −20.0. The “HAQ-DI, Change from Baseline, Mean (SD)” value [12] was −0.5 (0.86), the “HAQ-DI, Change from Baseline, Median” value [12] was −0.1 and the “HAQ-Health, Change … (SD)” value [12] was −16.2 (50.72). The “HAQ-Health, Change from Baseline, Median” value [12] was −10.0, the “HAQ-Pain, Change … (SD)” value [12] was −19.9 (20.25) and the “HAQ-Pain, Change from Baseline, Median” value [12] was −20.0. The “HAQ-DI, Change from Baseline, Mean (SD)” value [13] was −0.6 (0.87), the “HAQ-DI, Change from Baseline, Median” value [13] was −0.1 and the “HAQ-Health, Change … (SD)” value [13] was −16.7 (59.23). The “HAQ-Health, Change from Baseline, Median” value [13] was 15.0, the “HAQ-Pain, Change … (SD)” value [13] was −42.7 (18.04) and the “HAQ-Pain, Change from Baseline, Median” value [13] was −44.0. For the same molecule, the “HAQ-DI, Change from Baseline, Mean (SD)” value [14] was −0.8 (1.08), the “HAQ-DI, Change from Baseline, Median” value [14] was −0.1 and the “HAQ-Health, Change … (SD)” value [14] was 23.3 (54.85). For the same molecule, the “HAQ-Health, Change from Baseline, Median” value [14] was 5.0, the “HAQ-Pain, Change … (SD)” value [14] was −41.0 (25.24) and the “HAQ-Pain, Change from Baseline, Median” value [14] was −29.0. The “HAQ-DI, Observed, Mean (SD)” value (Week 52/ET, n=3) was 0.4 (0.29), the “HAQ-DI, Observed, Median” value (Week 52/ET, n=3) was 0.3 and the “HAQ-Health, Observed, Mean (SD)” value (Week 52/ET, n=3) was 60.0 (48.22). The “HAQ-Health, Observed, Median” value (Week 52/ET, n=3) was 80.0, the “HAQ-Pain, Observed, Mean (SD)” value (Week 52/ET, n=3) was 4.0 (5.20) and the “HAQ-Pain, Observed, Median” value (Week 52/ET, n=3) was 1.0.
